Measurements as given in the supplement of paper PMC10724198.
± gives the standard deviation of the averaged measurements.

Legend:
Saccharomyces cerevisiae [1] = assay: protein stability index of tFT-peptide fusion (C-terminal peptide) (PSI (0-1 scale)); higher = more stable (slower turnover); conditions: genetic background: wild type; temperature: 30 C
Saccharomyces cerevisiae [2] = assay: as above
Description: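 MPS profiling in S. cerevisiae of the tFT-X12 degron library: putative degron peptides plus stable controls, 12 aa, fused to the C-terminus of a sfGFP-mCherry timer. Cells are FACS-sorted into 8 mCherry/sfGFP bins and deep-sequenced. PSI runs from 0 (unstable) to 1 (stable). Backgrounds are wild type, das1Δ and doa10Δ at 30 °C, and wild type, das1Δ, cdc34-1 and cdc53-1 at 37 °C; 2-3 technical replicates each.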

[3] = genetic background: cdc34-1, temperature: 37 C
[4] = genetic background: cdc53-1, temperature: 37 C
[5] = genetic background: das1 deletion, temperature: 30 C
[6] = genetic background: das1 deletion, temperature: 37 C
[7] = genetic background: doa10 deletion, temperature: 30 C
[8] = genetic background: wild type, temperature: 30 C
[9] = genetic background: wild type, temperature: 37 C
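Note: PSI is a weighted mean of sequencing reads over stability bins, variants kept only with over 10 reads, mCherry proximal and sfGFP distal, peptide attached via GGGS linker.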

Sequence | protein stability index (Saccharomyces cerevisiae [1]) | protein stability index (Saccharomyces cerevisiae [2]; [3]) | protein stability index (Saccharomyces cerevisiae [2]; [4]) | protein stability index (Saccharomyces cerevisiae [2]; [5]) | protein stability index (Saccharomyces cerevisiae [2]; [6]) | protein stability index (Saccharomyces cerevisiae [2]; [7]) | protein stability index (Saccharomyces cerevisiae [2]; [8]) | protein stability index (Saccharomyces cerevisiae [2]; [9])
FWFLWAKMLLSC | 0.175 ± 0.022 | 0.253 ± 0.015 | 0.212 ± 0.064 | 0.252 ± 0.032 | 0.377 ± 0.0081 | 0.0958 ± 0.02 | 0.109 ± 0.027 | 0.138 ± 0.023
FWWVGCGWCRWG | 0.378 ± 0.011 | 0.619 ± 0.019 | 0.73 ± 0.023 | 0.602 ± 0.036 | 0.708 ± 0.011 | 0.2446 ± 0.0022 | 0.269 ± 0.025 | 0.4351 ± 0.00096
FYPFHVFCLLIF | 0.243 ± 0.029 | 0.18 ± 0.028 | 0.177 ± 0.037 | 0.254 ± 0.017 | 0.361 ± 0.012 | 0.18 ± 0.023 | 0.162 ± 0.028 | 0.228 ± 0.0053
GAICCFCCYLVF | 0.514 ± 0.043 | 0.554 ± 0.0089 | 0.625 ± 0.026 | 0.505 ± 0.028 | 0.626 ± 0.035 | 0.463 ± 0.025 | 0.47 ± 0.014 | 0.597 ± 0.031
GALWPGALRFLN | 0.171 ± 0.026 | 0.587 ± 0.045 | 0.747 ± 0.05 | 0.671 ± 0.023 | 0.81 ± 0.022 | 0.101 ± 0.014 | 0.104 ± 0.015 | 0.195 ± 0.035
GCLGYTLSCFTY | 0.401 ± 0.015 | 0.563 ± 0.014 | 0.64 ± 0.038 | 0.525 ± 0.051 | 0.626 ± 0.0015 | 0.519 ± 0.019 | 0.51 ± 0.027 | 0.643 ± 0.015
GCVVLNTVAFIC | 0.167 ± 0.037 | 0.492 ± 0.0084 | 0.583 ± 0.017 | 0.448 ± 0.025 | 0.625 ± 0.0075 | 0.108 ± 0.0055 | 0.127 ± 0.019 | 0.136 ± 0.018
GELDVRKLLKYF | 0.342 ± 0.086 | 0.688 ± 0.02 | 0.718 ± 0.043 | 0.669 ± 0.011 | 0.768 ± 0.019 | 0.154 ± 0.034 | 0.172 ± 0.036 | 0.383 ± 0.0041
GFAFFIGLSFAF | 0.475 ± 0.034 | 0.559 ± 0.015 | 0.588 ± 0.012 | 0.459 ± 0.025 | 0.5794 ± 0.0051 | 0.465 ± 0.0074 | 0.461 ± 0.01 | 0.565 ± 0.011
GFFCVWSLLFFN | 0.283 ± 0.016 | 0.328 ± 0.045 | 0.395 ± 0.016 | 0.262 ± 0.045 | 0.449 ± 0.018 | 0.218 ± 0.031 | 0.187 ± 0.021 | 0.385 ± 0.005
GFFLCTCIRFWV | 0.316 ± 0.016 | 0.452 ± 0.018 | 0.518 ± 0.034 | 0.386 ± 0.027 | 0.544 ± 0.01 | 0.2478 ± 0.0011 | 0.254 ± 0.028 | 0.421 ± 0.018
GFLRTVHFLLLG | 0.354 ± 0.054 | 0.634 ± 0.1 | 0.675 ± 0.0077 | 0.575 ± 0.012 | 0.721 ± 0.037 | 0.225 ± 0.0044 | 0.251 ± 0.035 | 0.4702 ± 0.0038
GFNIFFFFFFFV | 0.326 ± 0.0089 | 0.21 ± 0.051 | 0.223 ± 0.035 | 0.202 ± 0.02 | 0.297 ± 0.019 | 0.281 ± 0.0099 | 0.173 ± 0.006 | 0.247 ± 0.021
GFPFLCSFLLAS | 0.382 ± 0.013 | 0.384 ± 0.0044 | 0.412 ± 0.0058 | 0.298 ± 0.04 | 0.472 ± 0.011 | 0.253 ± 0.005 | 0.291 ± 0.026 | 0.453 ± 0.005
GFPFLFILYFLC | 0.158 ± 0.019 | 0.161 ± 0.03 | 0.257 ± 0.013 | 0.224 ± 0.02 | 0.385 ± 0.0061 | 0.111 ± 0.0087 | 0.0763 ± 0.036 | 0.105 ± 0.0019
GGGAGVVWVRLG | 0.235 ± 0.035 | 0.5376 ± 0.0049 | 0.732 ± 0.022 | 0.642 ± 0.0084 | 0.7415 ± 0.0037 | 0.112 ± 0.0043 | 0.12 ± 0.027 | 0.166 ± 0.011
GGGVGGAVVLFW | 0.408 ± 0.013 | 0.651 ± 0.023 | 0.764 ± 0.029 | 0.527 ± 0.016 | 0.718 ± 0.0021 | 0.528 ± 0.01 | 0.565 ± 0.027 | 0.716 ± 0.0033
GGGWCVWMVWFG | 0.401 ± 0.024 | 0.482 ± 0.036 | 0.568 ± 0.0063 | 0.411 ± 0.03 | 0.595 ± 0.011 | 0.23 ± 0.006 | 0.261 ± 0.027 | 0.481 ± 0.036
GGIRLRVRFFVI | 0.247 ± 0.019 | 0.584 ± 0.061 | 0.658 ± 0.011 | 0.53 ± 0.026 | 0.6152 ± 0.0058 | 0.158 ± 0.0059 | 0.168 ± 0.023 | 0.236 ± 0.016
GGSGGVSWRRVV | 0.395 ± 0.022 | 0.68 ± 0.034 | 0.735 ± 0.0088 | 0.654 ± 0.011 | 0.725 ± 0.01 | 0.223 ± 0.019 | 0.264 ± 0.018 | 0.546 ± 0.051
GGSIKRFVILVL | 0.406 ± 0.022 | 0.416 ± 0.027 | 0.489 ± 0.0076 | 0.3 ± 0.044 | 0.525 ± 0.017 | 0.259 ± 0.006 | 0.304 ± 0.024 | 0.482 ± 0.027
GGSKIGFTVGGG | 0.721 ± 0.018 | 0.686 ± 0.024 | 0.741 ± 0.017 | 0.645 ± 0.013 | 0.738 ± 0.013 | 0.642 ± 0.018 | 0.664 ± 0.02 | 0.725 ± 0.0018
GGTGGAGSRGQI | 0.499 ± 0.099 | 0.641 ± 0.069 | 0.741 ± 0.01 | 0.6181 ± 0.0046 | 0.724 ± 0.02 | 0.644 ± 0.0041 | 0.657 ± 0.011 | 0.7316 ± 0.007
GGWFFWVGAWVV | 0.193 ± 0.0025 | 0.173 ± 0.005 | 0.346 ± 0.028 | 0.202 ± 0.026 | 0.3957 ± 0.0013 | 0.102 ± 0.018 | 0.121 ± 0.025 | 0.214 ± 0.0027
GGWRVLHAWVAV | 0.463 ± 0.015 | 0.651 ± 0.045 | 0.682 ± 0.012 | 0.546 ± 0.019 | 0.6866 ± 0.00041 | 0.278 ± 0.0058 | 0.328 ± 0.023 | 0.553 ± 0.023
GGYIINRWRTKN | 0.27 ± 0.052 | 0.566 ± 0.035 | 0.709 ± 0.022 | 0.622 ± 0.016 | 0.724 ± 0.052 | 0.113 ± 0.026 | 0.142 ± 0.021 | 0.273 ± 0.011
GILPIYNIISRL | 0.553 ± 0.28 | 0.9679 ± 0.0088 | 0.948 ± 0.019 | 0.842 ± 0.054 | 0.891 ± 0.013 | 0.568 ± 0.016 | 0.547 ± 0.1 | 0.84 ± 0.031
GITSFFSWSFLS | 0.237 ± 0.048 | 0.6014 ± 0.0038 | 0.7537 ± 0.0057 | 0.682 ± 0.064 | 0.782 ± 0.055 | 0.169 ± 0.015 | 0.172 ± 0.0065 | 0.366 ± 0.0087
GKWFSWNAIWIR | 0.145 ± 0.049 | 0.0949 ± 0.11 | 0.0354 ± 0.0075 | 0.101 ± 0.025 | 0.1 ± 0.02 | 0.6114 ± 0.0025 | 0.0762 ± 0.029 | 0.101 ± 0.046
GLCGVCLVRCVG | 0.338 ± 0.019 | 0.3008 ± 0.00051 | 0.412 ± 0.024 | 0.275 ± 0.031 | 0.478 ± 0.0052 | 0.211 ± 0.0051 | 0.249 ± 0.036 | 0.393 ± 0.0046
